From the supplement of paper PMC10065799, “High-throughput profiling of sequence recognition by tyrosine kinases and SH2 domains using bacterial peptide display” (eLife, 2023)

System: AncSZ
Assay: phosphorylation enrichment, bacterial display (enrichment ratio); higher = better substrate or ligand; peptides without Tyr show the background
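Further: 11-residue human phosphosite peptides and single-mutation variants displayed on the E. coli surface, counted by deep sequencing, each peptide's frequency after selection divided by its frequency in the unselected input library; frequency after pTyr selection over input frequency; kinase dosed for 20-30% of maximal phosphorylation in three min.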

Sequence	phosphorylation enrichment
VLTSKYHGGGG [HBA1_Y141_R142H]	0.475
SVVVPFEPPEV [TP53_Y220_Y220F]	1.04
QTSTDYDIRFF [CSNK2A1_Y131_L128S_YF]	2.12
VSYDEYRYRSV [CFTR_Y515]	0.754
TFLRTYTDAMQ [TSPAN7_Y124]	0.791
HSVLQYVGGVM [FGGY_Y136]	1.05
AESPEHVHMYT [FAM111A_Y511_Y511H]	0.812
YPKAHYHWLVL [APTX_Y214_R213H]	0.823
QKPLDYFRVNL [GALE_Y104_YF]	1.41
CLAKMYFSAVD [CP_Y539_YF]	1.04
FVSSFYHAFSG [ACTN4_Y265_YF]	0.999
ITNHIYTWVDP [DFNB31_Y234_V229I]	2.4
CEAVEYLESKQ [BTK_Y511_M509V]	1.3
LERFIYNREEL [HLA-DPB1_Y59_F64L_YF]	1.5
ELRGTYTSLQQ [KIF3C_Y574]	0.705
MFCASYDTKQE [F10_Y407_G406S]	1.01

Target: Jak2 (UniProt O60674)
Assay: as above

Chain of Jak2 (O60674 whole entry, looked up): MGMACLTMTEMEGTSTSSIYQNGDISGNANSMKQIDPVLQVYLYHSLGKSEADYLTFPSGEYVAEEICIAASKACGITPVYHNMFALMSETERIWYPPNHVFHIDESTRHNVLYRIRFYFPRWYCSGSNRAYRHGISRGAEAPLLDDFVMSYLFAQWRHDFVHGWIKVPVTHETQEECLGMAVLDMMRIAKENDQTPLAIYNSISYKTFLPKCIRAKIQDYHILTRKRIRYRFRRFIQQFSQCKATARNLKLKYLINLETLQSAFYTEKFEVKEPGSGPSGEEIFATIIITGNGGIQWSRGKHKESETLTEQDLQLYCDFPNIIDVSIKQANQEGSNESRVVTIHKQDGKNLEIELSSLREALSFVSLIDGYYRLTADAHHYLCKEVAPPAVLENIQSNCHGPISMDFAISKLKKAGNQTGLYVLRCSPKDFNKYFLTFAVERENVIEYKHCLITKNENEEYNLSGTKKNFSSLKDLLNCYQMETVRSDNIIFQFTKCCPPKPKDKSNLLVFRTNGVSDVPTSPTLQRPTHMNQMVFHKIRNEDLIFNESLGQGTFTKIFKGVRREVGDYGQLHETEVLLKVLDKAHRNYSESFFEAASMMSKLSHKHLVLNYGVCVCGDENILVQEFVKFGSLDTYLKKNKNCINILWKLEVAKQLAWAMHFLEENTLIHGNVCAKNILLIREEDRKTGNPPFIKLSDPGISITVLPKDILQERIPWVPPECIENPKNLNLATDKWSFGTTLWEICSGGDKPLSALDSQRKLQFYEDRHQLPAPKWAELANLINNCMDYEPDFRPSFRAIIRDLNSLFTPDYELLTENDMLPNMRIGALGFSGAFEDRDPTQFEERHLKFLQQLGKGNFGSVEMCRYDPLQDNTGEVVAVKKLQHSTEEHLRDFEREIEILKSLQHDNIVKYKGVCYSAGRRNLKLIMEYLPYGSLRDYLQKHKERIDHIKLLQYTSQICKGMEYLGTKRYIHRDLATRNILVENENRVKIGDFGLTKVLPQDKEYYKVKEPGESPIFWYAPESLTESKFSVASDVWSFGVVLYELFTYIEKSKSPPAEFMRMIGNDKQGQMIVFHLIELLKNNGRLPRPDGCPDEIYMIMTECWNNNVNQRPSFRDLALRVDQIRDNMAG

Sequence	phosphorylation enrichment
VLTSKYHGGGG [HBA1_Y141_R142H]	0.509
SVVVPFEPPEV [TP53_Y220_Y220F]	1.06
QTSTDYDIRFF [CSNK2A1_Y131_L128S_YF]	1.61
VSYDEYRYRSV [CFTR_Y515]	0.71
TFLRTYTDAMQ [TSPAN7_Y124]	0.726
HSVLQYVGGVM [FGGY_Y136]	1.11
AESPEHVHMYT [FAM111A_Y511_Y511H]	0.687
YPKAHYHWLVL [APTX_Y214_R213H]	1.16
QKPLDYFRVNL [GALE_Y104_YF]	8.52
CLAKMYFSAVD [CP_Y539_YF]	1.06
FVSSFYHAFSG [ACTN4_Y265_YF]	1.19
ITNHIYTWVDP [DFNB31_Y234_V229I]	1.06
CEAVEYLESKQ [BTK_Y511_M509V]	1.32
LERFIYNREEL [HLA-DPB1_Y59_F64L_YF]	1.54
ELRGTYTSLQQ [KIF3C_Y574]	0.777
MFCASYDTKQE [F10_Y407_G406S]	0.986

Target: Fyn (UniProt P06241)
Assay: as above

Chain of Fyn (P06241 whole entry, looked up): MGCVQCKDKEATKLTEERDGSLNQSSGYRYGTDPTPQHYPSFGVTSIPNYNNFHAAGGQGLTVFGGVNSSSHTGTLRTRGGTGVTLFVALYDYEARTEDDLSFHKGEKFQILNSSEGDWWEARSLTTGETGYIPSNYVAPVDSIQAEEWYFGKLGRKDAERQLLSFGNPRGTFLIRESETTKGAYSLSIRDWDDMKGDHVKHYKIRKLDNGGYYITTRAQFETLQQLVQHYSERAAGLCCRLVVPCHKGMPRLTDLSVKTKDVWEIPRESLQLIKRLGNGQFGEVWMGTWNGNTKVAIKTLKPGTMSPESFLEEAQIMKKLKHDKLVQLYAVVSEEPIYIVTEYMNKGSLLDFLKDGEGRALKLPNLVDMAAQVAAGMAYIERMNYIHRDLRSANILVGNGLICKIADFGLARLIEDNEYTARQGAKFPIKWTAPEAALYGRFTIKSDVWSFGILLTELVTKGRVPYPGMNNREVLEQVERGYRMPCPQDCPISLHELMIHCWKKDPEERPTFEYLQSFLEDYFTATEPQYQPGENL

Sequence	phosphorylation enrichment
VLTSKYHGGGG [HBA1_Y141_R142H]	0.364
SVVVPFEPPEV [TP53_Y220_Y220F]	0.41
QTSTDYDIRFF [CSNK2A1_Y131_L128S_YF]	1.43
VSYDEYRYRSV [CFTR_Y515]	0.633
TFLRTYTDAMQ [TSPAN7_Y124]	0.396
HSVLQYVGGVM [FGGY_Y136]	0.776
AESPEHVHMYT [FAM111A_Y511_Y511H]	0.476
YPKAHYHWLVL [APTX_Y214_R213H]	0.368
QKPLDYFRVNL [GALE_Y104_YF]	0.58
CLAKMYFSAVD [CP_Y539_YF]	0.519
FVSSFYHAFSG [ACTN4_Y265_YF]	2.32
ITNHIYTWVDP [DFNB31_Y234_V229I]	4.11
CEAVEYLESKQ [BTK_Y511_M509V]	0.443
LERFIYNREEL [HLA-DPB1_Y59_F64L_YF]	1.19
ELRGTYTSLQQ [KIF3C_Y574]	0.978
MFCASYDTKQE [F10_Y407_G406S]	0.558

Target: EPHB1 (UniProt P54762)
Assay: as above

Sequence	phosphorylation enrichment
VLTSKYHGGGG [HBA1_Y141_R142H]	0.336
SVVVPFEPPEV [TP53_Y220_Y220F]	0.578
QTSTDYDIRFF [CSNK2A1_Y131_L128S_YF]	1.27
VSYDEYRYRSV [CFTR_Y515]	0.485
TFLRTYTDAMQ [TSPAN7_Y124]	0.51
HSVLQYVGGVM [FGGY_Y136]	0.943
AESPEHVHMYT [FAM111A_Y511_Y511H]	0.523
YPKAHYHWLVL [APTX_Y214_R213H]	0.505
QKPLDYFRVNL [GALE_Y104_YF]	1
CLAKMYFSAVD [CP_Y539_YF]	0.662
FVSSFYHAFSG [ACTN4_Y265_YF]	1.51
ITNHIYTWVDP [DFNB31_Y234_V229I]	2.92
CEAVEYLESKQ [BTK_Y511_M509V]	0.546
LERFIYNREEL [HLA-DPB1_Y59_F64L_YF]	0.698
ELRGTYTSLQQ [KIF3C_Y574]	0.398
MFCASYDTKQE [F10_Y407_G406S]	0.536

Target: EPHB2 (UniProt P29323)
Assay: as above

Chain of EPHB2 (P29323 whole entry, looked up): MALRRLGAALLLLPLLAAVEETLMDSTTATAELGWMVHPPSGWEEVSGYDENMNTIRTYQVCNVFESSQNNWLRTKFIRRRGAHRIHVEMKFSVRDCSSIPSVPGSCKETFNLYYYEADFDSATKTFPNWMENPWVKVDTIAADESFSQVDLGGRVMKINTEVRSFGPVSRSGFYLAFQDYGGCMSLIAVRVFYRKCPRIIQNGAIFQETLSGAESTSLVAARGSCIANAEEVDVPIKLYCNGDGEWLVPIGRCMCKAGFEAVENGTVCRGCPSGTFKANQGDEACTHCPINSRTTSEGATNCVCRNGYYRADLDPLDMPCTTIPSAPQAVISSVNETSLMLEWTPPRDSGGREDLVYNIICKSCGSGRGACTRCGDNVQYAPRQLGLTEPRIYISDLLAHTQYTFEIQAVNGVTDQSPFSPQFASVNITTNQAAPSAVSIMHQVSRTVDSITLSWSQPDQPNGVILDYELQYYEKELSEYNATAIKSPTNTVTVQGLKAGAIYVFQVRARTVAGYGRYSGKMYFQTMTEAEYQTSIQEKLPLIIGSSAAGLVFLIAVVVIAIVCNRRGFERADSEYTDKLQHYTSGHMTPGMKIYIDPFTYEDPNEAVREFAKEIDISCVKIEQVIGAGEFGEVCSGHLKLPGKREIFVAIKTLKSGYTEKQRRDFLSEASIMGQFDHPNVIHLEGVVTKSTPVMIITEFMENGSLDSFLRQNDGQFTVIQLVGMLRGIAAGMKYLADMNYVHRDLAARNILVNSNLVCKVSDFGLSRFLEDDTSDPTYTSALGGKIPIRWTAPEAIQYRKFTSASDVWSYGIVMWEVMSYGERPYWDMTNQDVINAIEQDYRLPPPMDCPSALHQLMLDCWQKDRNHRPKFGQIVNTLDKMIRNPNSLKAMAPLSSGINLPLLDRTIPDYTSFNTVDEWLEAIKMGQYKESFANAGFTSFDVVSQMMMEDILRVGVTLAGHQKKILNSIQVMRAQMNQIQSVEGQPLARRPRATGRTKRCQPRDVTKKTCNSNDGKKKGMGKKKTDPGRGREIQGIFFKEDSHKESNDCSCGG

Sequence	phosphorylation enrichment
VLTSKYHGGGG [HBA1_Y141_R142H]	0.365
SVVVPFEPPEV [TP53_Y220_Y220F]	0.628
QTSTDYDIRFF [CSNK2A1_Y131_L128S_YF]	1.22
VSYDEYRYRSV [CFTR_Y515]	0.417
TFLRTYTDAMQ [TSPAN7_Y124]	0.488
HSVLQYVGGVM [FGGY_Y136]	0.977
AESPEHVHMYT [FAM111A_Y511_Y511H]	0.474
YPKAHYHWLVL [APTX_Y214_R213H]	0.482
QKPLDYFRVNL [GALE_Y104_YF]	0.636
CLAKMYFSAVD [CP_Y539_YF]	0.592
FVSSFYHAFSG [ACTN4_Y265_YF]	0.896
ITNHIYTWVDP [DFNB31_Y234_V229I]	1.62
CEAVEYLESKQ [BTK_Y511_M509V]	0.802
LERFIYNREEL [HLA-DPB1_Y59_F64L_YF]	0.734
ELRGTYTSLQQ [KIF3C_Y574]	0.481
MFCASYDTKQE [F10_Y407_G406S]	0.717

Target: Fes (UniProt P07332)
Assay: as above

Chain of Fes (P07332 whole entry, looked up): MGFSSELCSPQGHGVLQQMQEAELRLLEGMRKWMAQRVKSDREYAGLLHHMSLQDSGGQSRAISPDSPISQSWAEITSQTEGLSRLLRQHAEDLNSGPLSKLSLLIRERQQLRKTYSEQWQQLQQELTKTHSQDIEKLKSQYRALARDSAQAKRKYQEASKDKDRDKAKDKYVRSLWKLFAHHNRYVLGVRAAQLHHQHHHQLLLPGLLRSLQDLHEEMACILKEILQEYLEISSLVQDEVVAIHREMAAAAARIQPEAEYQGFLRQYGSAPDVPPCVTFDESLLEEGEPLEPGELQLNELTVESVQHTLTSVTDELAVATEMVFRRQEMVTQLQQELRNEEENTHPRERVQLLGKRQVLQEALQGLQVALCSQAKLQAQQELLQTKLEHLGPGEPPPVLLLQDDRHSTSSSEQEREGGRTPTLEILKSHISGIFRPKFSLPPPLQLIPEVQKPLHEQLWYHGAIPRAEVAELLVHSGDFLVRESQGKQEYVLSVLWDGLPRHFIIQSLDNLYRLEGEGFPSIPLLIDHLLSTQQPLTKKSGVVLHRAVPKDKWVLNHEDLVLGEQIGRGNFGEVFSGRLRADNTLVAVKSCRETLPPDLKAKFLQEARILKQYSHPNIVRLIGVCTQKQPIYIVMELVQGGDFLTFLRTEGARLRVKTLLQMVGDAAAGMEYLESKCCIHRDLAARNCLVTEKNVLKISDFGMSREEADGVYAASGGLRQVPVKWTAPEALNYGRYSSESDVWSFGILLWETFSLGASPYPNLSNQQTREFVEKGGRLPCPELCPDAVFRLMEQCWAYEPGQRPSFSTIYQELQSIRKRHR

Sequence	phosphorylation enrichment
VLTSKYHGGGG [HBA1_Y141_R142H]	0.549
SVVVPFEPPEV [TP53_Y220_Y220F]	1.22
QTSTDYDIRFF [CSNK2A1_Y131_L128S_YF]	1.81
VSYDEYRYRSV [CFTR_Y515]	0.942
TFLRTYTDAMQ [TSPAN7_Y124]	0.813
HSVLQYVGGVM [FGGY_Y136]	1.48
AESPEHVHMYT [FAM111A_Y511_Y511H]	0.861
YPKAHYHWLVL [APTX_Y214_R213H]	1.15
QKPLDYFRVNL [GALE_Y104_YF]	1.59
CLAKMYFSAVD [CP_Y539_YF]	1.26
FVSSFYHAFSG [ACTN4_Y265_YF]	1.3
ITNHIYTWVDP [DFNB31_Y234_V229I]	1.97
CEAVEYLESKQ [BTK_Y511_M509V]	1.41
LERFIYNREEL [HLA-DPB1_Y59_F64L_YF]	1.3
ELRGTYTSLQQ [KIF3C_Y574]	0.869
MFCASYDTKQE [F10_Y407_G406S]	1.17

Target: FGFR1 (UniProt P11362)
Assay: as above

Chain of FGFR1 (P11362 whole entry, looked up): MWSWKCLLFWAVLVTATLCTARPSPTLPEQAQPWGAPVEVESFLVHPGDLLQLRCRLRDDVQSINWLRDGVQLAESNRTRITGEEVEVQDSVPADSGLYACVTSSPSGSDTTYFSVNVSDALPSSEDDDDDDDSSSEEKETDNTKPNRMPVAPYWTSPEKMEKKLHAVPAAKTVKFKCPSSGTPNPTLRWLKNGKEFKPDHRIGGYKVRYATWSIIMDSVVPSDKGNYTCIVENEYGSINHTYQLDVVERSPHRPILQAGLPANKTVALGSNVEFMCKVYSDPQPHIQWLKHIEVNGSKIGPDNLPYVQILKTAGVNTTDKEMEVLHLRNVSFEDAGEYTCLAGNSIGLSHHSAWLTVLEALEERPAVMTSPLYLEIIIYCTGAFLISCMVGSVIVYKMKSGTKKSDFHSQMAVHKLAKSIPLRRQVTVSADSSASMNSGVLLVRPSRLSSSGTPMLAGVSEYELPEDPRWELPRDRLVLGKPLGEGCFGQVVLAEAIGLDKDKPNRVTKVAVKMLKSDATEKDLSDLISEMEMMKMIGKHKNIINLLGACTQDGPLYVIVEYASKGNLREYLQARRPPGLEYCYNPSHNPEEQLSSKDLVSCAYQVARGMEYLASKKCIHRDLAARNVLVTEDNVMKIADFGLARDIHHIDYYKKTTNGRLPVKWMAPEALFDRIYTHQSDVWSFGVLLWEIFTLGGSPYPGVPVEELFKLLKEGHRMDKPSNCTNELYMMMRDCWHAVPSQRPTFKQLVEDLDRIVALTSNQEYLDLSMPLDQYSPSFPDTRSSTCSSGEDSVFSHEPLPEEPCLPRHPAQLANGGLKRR

Sequence	phosphorylation enrichment
VLTSKYHGGGG [HBA1_Y141_R142H]	0.772
SVVVPFEPPEV [TP53_Y220_Y220F]	0.533
QTSTDYDIRFF [CSNK2A1_Y131_L128S_YF]	0.667
VSYDEYRYRSV [CFTR_Y515]	0.455
TFLRTYTDAMQ [TSPAN7_Y124]	0.438
HSVLQYVGGVM [FGGY_Y136]	0.944
AESPEHVHMYT [FAM111A_Y511_Y511H]	0.533
YPKAHYHWLVL [APTX_Y214_R213H]	2.54
QKPLDYFRVNL [GALE_Y104_YF]	7.69
CLAKMYFSAVD [CP_Y539_YF]	0.519
FVSSFYHAFSG [ACTN4_Y265_YF]	1.2
ITNHIYTWVDP [DFNB31_Y234_V229I]	3.64
CEAVEYLESKQ [BTK_Y511_M509V]	0.534
LERFIYNREEL [HLA-DPB1_Y59_F64L_YF]	0.666
ELRGTYTSLQQ [KIF3C_Y574]	0.489
MFCASYDTKQE [F10_Y407_G406S]	0.561

System: Fer (mouse)
Assay: as above

Sequence	phosphorylation enrichment
VLTSKYHGGGG [HBA1_Y141_R142H]	0.315
SVVVPFEPPEV [TP53_Y220_Y220F]	0.467
QTSTDYDIRFF [CSNK2A1_Y131_L128S_YF]	0.809
VSYDEYRYRSV [CFTR_Y515]	0.381
TFLRTYTDAMQ [TSPAN7_Y124]	0.379
HSVLQYVGGVM [FGGY_Y136]	0.73
AESPEHVHMYT [FAM111A_Y511_Y511H]	0.432
YPKAHYHWLVL [APTX_Y214_R213H]	0.571
QKPLDYFRVNL [GALE_Y104_YF]	0.643
CLAKMYFSAVD [CP_Y539_YF]	0.506
FVSSFYHAFSG [ACTN4_Y265_YF]	0.522
ITNHIYTWVDP [DFNB31_Y234_V229I]	9.75
CEAVEYLESKQ [BTK_Y511_M509V]	0.564
LERFIYNREEL [HLA-DPB1_Y59_F64L_YF]	0.669
ELRGTYTSLQQ [KIF3C_Y574]	0.428
MFCASYDTKQE [F10_Y407_G406S]	0.571
